Numbering of substitutions follows the chain as printed.
T1: CD3 protein
T1 chain 1: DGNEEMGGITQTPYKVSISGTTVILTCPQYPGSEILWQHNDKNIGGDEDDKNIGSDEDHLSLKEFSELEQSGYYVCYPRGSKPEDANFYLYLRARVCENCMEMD
T1 chain 2: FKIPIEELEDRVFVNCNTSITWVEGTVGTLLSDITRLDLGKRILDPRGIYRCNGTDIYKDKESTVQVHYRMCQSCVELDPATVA

B1: 17G131 (anti-CD26-CD3 chimeric bispecific antibody derived from No. 51 mouse antibody) (bispecific antibody)
chain: DIQMTQSPASLSASVGESVTITCRASENIYSYLTWYQQKQGKSPQLLVYNAKTLTEDVPSRFSGSGSGTQFSLKINSLQPEDFGSYYCQHHYGSPRTFGGGTKLEIKGGGGSGGGGSGGGGSQAQLQQSGAELMKPGASVKISCKATGYTFSNFWIEWVVQRPGHGLEWIGEILPGRGTTNYNEKFRGKATFTADTSSDTAYIQLSSLTSEDSAVYYCARERFYGSKYFDVWGAGTTVTVSSGGGGSDVQLVQSGAEVKKPGASVKVSCKASGYTFTRYTMHWVRQAPGQGLEWIGYINPSRGYTNYADSVKGRFTITTDKSTSTAYMELSSLRSEDTATYYCARYYDDHYCLDYWGQGTTVTVSSGGGGSGGGGSGGGGSDIVLTQSPATLSLSPGERATLSCRASQSVSYMNWYQQKPGKAPKRWIYDTSKVASGVPARFSGSGSGTDYSLTINSLEAEDAATYYCQQWSSNPLTFGGGTKVEIK
notes: also called chimeric BiTE
B2: 17G61 (anti-CD26-CD3 chimeric bispecific antibody derived from No. 62 mouse antibody) (bispecific antibody)
chain: DIVMTQAAPSVSVTPGESVSISCRSDKSLLHSNGNTYLYWFLQRPGQSPQVLIYRMSNLASGVPDRFSGSGSGTGFTLRVSRVEAEDVGVYYCFQQLEYPYTFGGGTKLEIKGGGGSGGGGSGGGGSEVQLQQSGAELVKPGASVKLSCTASGFNIKDTYIYWVKQRPGQGLEWIGRIEPMNGNTKYDPKFQGKATMTANTSSNTAYLHLSSLASEDTAVYFCSRGGWLLLYVMDYWGQGTSVTVSSGGGGSDVQLVQSGAEVKKPGASVKVSCKASGYTFTRYTMHWVRQAPGQGLEWIGYINPSRGYTNYADSVKGRFTITTDKSTSTAYMELSSLRSEDTATYYCARYYDDHYCLDYWGQGTTVTVSSGGGGSGGGGSGGGGSDIVLTQSPATLSLSPGERATLSCRASQSVSYMNWYQQKPGKAPKRWIYDTSKVASGVPARFSGSGSGTDYSLTINSLEAEDAATYYCQQWSSNPLTFGGGTKVEIK
notes: also called chimeric BiTE
B3: 19G293 (anti-CD26-CD3 humanized bispecific antibody derived from No. 62 mouse antibody) (bispecific antibody)
chain: QVQLVQSGAELVKPGASVKLSCKASGFNIKDTYIYWVRQAPGQGLEWIGRIEPMNGNTKYDPKFQGRVTMTANTSINTAYLELSSLRSEDTAVYYCSRGGWLLLYVMDYWGQGTLVTVSSGGGGSGGGGSGGGGSDIVMTQSPLSLSVTPGEPASISCRSDKSLLHSNGNTYLYWFLQKPGQSPQVLIYRMSNLASGVPDRFSGSGSGTDFTLKISRVEAEDVGVYYCFQQLEYPYTFGQGTKLEIKGGGGSDVQLVQSGAEVKKPGASVKVSCKASGYTFTRYTMHWVRQAPGQGLEWIGYINPSRGYTNYADSVKGRFTITTDKSTSTAYMELSSLRSEDTATYYCARYYDDHYCLDYWGQGTTVTVSSGGGGSGGGGSGGGGSDIVLTQSPATLSLSPGERATLSCRASQSVSYMNWYQQKPGKAPKRWIYDTSKVASGVPARFSGSGSGTDYSLTINSLEAEDAATYYCQQWSSNPLTFGGGTKVEIK
B4: 18G272 (anti-CD26-CD3 humanized bispecific antibody derived from No. 62 mouse antibody) (bispecific antibody)
chain: DIVMTQSASSLPVTPGEPASISCRSDKSLLHSNGNTYLYWFLQKPGQSPQVLIYRMSNLASGVPDRFSGSGSGTDFTLTISRVEAEDVGVYYCFQQLEYPYTFGQGTKLEIKGGGGSGGGGSGGGGSQVQLVQSGAEVVKPGASVKISCKASGFNIKDTYIYWVRQRTGQGLEWIGRIEPMNGNTKYDPKFQGRLTMTANTSKNTAYLQLSSLTSEDTAVYYCSRGGWLLLYVMDYWGQGTTVTVSSGGGGSDVQLVQSGAEVKKPGASVKVSCKASGYTFTRYTMHWVRQAPGQGLEWIGYINPSRGYTNYADSVKGRFTITTDKSTSTAYMELSSLRSEDTATYYCARYYDDHYCLDYWGQGTTVTVSSGGGGSGGGGSGGGGSDIVLTQSPATLSLSPGERATLSCRASQSVSYMNWYQQKPGKAPKRWIYDTSKVASGVPARFSGSGSGTDYSLTINSLEAEDAATYYCQQWSSNPLTFGGGTKVEIK
B5: 19G292 (anti-CD26-CD3 humanized bispecific antibody derived from No. 62 mouse antibody) (bispecific antibody)
chain: QVQLLQSGAEVVKPGASVKISCKASGFNIKDTYIYWVKQPTGQGLEWIGRIEPMNGNTKYDPKFQGRFTMTANTSINTAYLQLSSLTSEDTAVYYCSRGGWLLLYVMDYWGQGTTVTVSSGGGGSGGGGSGGGGSDIVMTQSASSLPVTPGESVSISCRSDKSLLHSNGNTYLYWFLQRPGQSPQVLIYRMSNLASGVPDRFSGSGSGTEFTLTISRVEAEDVGVYYCFQQLEYPYTFGPGTKLEIKGGGGSDVQLVQSGAEVKKPGASVKVSCKASGYTFTRYTMHWVRQAPGQGLEWIGYINPSRGYTNYADSVKGRFTITTDKSTSTAYMELSSLRSEDTATYYCARYYDDHYCLDYWGQGTTVTVSSGGGGSGGGGSGGGGSDIVLTQSPATLSLSPGERATLSCRASQSVSYMNWYQQKPGKAPKRWIYDTSKVASGVPARFSGSGSGTDYSLTINSLEAEDAATYYCQQWSSNPLTFGGGTKVEIK
B6: 17G29 (anti-CD26-CD3 humanized bispecific antibody derived from YS110) (bispecific antibody)
chain: EVQLVESGAGVKQPGGTLRLTCTASGFSLTTYGVHWVRQAPGKGLEWVGVIWGDGRTDYDAAFMSRVTISKDTSKSTVYLQMNSLRAEDTAVYYCMRNRHDWFDYWGQGTTVTVSSGGGGSGGGGSGGGGSDILLTQSPSSLSATPGERATITCRASQGIRNNLNWYQQKPGQAPRLLIYYSSNLQSGVPSRFSGSGSGTDFTLTISRLQPEDVAAYYCQQSIKLPFTFGSGTKVEIKGGGGSDVQLVQSGAEVKKPGASVKVSCKASGYTFTRYTMHWVRQAPGQGLEWIGYINPSRGYTNYADSVKGRFTITTDKSTSTAYMELSSLRSEDTATYYCARYYDDHYCLDYWGQGTTVTVSSGGGGSGGGGSGGGGSDIVLTQSPATLSLSPGERATLSCRASQSVSYMNWYQQKPGKAPKRWIYDTSKVASGVPARFSGSGSGTDYSLTINSLEAEDAATYYCQQWSSNPLTFGGGTKVEIK
notes: also called positive control
B7: 19G296 (anti-CD26-CD3 humanized bispecific antibody derived from No. 212 mouse antibody) (bispecific antibody)
chain: QVQLQESGPGLVKPSETLSLTCTVSGDSITSGYWHWIRQPPGKGLEWIGYINYSGYTYYNPSLKSRFTISRDTSKNQYYLQLNSVTAEDTAVYYCTSERNWGAFAYWGQGTLVTVSSGGGGSGGGGSGGGGSENVLTQSPATLSASPGERATLSCRASSSVISTYLHWYQQKPGQAPKLWIYSTSNLASGVPARFSGSGSGTDYTLTISSVEPEDFAVYYCQQFSGYPYTFGQGTKLEIKGGGGSDVQLVQSGAEVKKPGASVKVSCKASGYTFTRYTMHWVRQAPGQGLEWIGYINPSRGYTNYADSVKGRFTITTDKSTSTAYMELSSLRSEDTATYYCARYYDDHYCLDYWGQGTTVTVSSGGGGSGGGGSGGGGSDIVLTQSPATLSLSPGERATLSCRASQSVSYMNWYQQKPGKAPKRWIYDTSKVASGVPARFSGSGSGTDYSLTINSLEAEDAATYYCQQWSSNPLTFGGGTKVEIK
B8: 19G297 (anti-CD26-CD3 humanized bispecific antibody derived from No. 212 mouse antibody) (bispecific antibody)
chain: B7 chain with Q1E, E16G, T23A, P40A, I48V, T142S, A151V, L153I, S154T, V218T

Each binder was assayed against T2, CD26 protein (recombinant human CD26) (human, UniProt P27487 29-766, limits assumed) (assay: BLI (Octet QKe), CD26 amine-coupled on AR2G sensor, antibody at 181.8 nM).
T2 construct: Amine-coupled, biotinylated or HRP-labeled according to the assay; also called DPP4; rCD26
Experimental: The affinity of the chimeric antibody to the antigen protein CD26 was detected by Fortebio Intermolecular Interaction Octet QKe instrument. First, the amino-coupled biosensor AR2G was activated with EDC/s-NHS, and the activated biosensor AR2G was solidified in CD26 protein solution diluted with 10 mM sodium acetate (pH 5.0) solution. The biosensor solidified with CD26 was quenched in 1M ethanolamine (pH8.5) solution. Then equilibrated in 1× kinetic solution. After equilibration, it was bound to a humanized bispecific antibody solution. It was dissociated in 1× kinetic solution. Fortebio Data Analysis 8.0 software was used to analyze the data and calculate the affinity constant (KD), association rate constant (kon) and dissociation rate constant (kdis). The Response value represents the number of antibody molecules that can bind to the antigen. Kon indicates the binding speed of the antibody to the corresponding receptor. Kdis represents the dissociation speed of antibody from corresponding receptor. NA indicates no valid data.

Binder | Kd [nM] | Response | koff [s⁻¹] | kon [M⁻¹ s⁻¹]
B1 | 43.6 | 0.15 | 0.000829 | 19000
B2 | 17.3 | 0.849 | 0.000331 | 19100

Each binder was assayed against CD26 on CD26 positive human tumor cells (human, UniProt P27487 1-766) (assay: cell-based or functional assay).

Binder | IC50 of antibody mediated PBMC cytotoxicity against 786-0 cells [ng/mL] | IC50 of antibody mediated PBMC cytotoxicity against NCI-H226 cells [ng/mL] | IC50 of antibody mediated PBMC cytotoxicity against OS-RC-2 cells [ng/mL] | IC50 of antibody mediated PBMC cytotoxicity against PC-3 cells [ng/mL]
B3 | 0.974 | 0.405 | 2.25 | 0.565
B4 | 2.27 | 0.143 | 0.284 | 0.379
B5 | 0.805 | 1.1 | 1.04 | 0.339
B6 | 1.03 | 0.918 | 0.958 | 1.14

These binders were tested against T2, CD26 protein (recombinant human CD26) (assay: BLI (Octet), biotinylated CD26 on SA sensor, antibody 31.3-500 nM).
Experimental: CD26 protein was biotinylated with EZ-link NHS-PEG12-Biotin. Biotinylated CD26 protein was immobilized to SA biosensor. Equilibrated in 1×Kinetics solution. The CD26 immobilized to SA biosensor was combined with the antibody solution to be detected. The concentration gradients of the antibody solution were 31.3 nM, 62.5 nM, 125 nM, 250 nM, and 500 nM. The biosensor was dissociated in 1×Kinetics solution. Fortebio Data Analysis 8.0 software was used for data analysis and affinity constant values were calculated.

Binder | Kd [nM] | koff [s⁻¹] | kon [M⁻¹ s⁻¹]
B7 | 14.8 | 0.0014 | 94500
B8 | 4.4 | 0.00037 | 91800
B3 | < 0.001 |  | 54600
B5 | < 0.001 |  | 65800
B6 | 1.18 | 0.000216 | 183000

Target: T1, CD3 protein
Experiment: BLI (Octet), biotinylated CD3 on SA sensor, antibody 200-1600 nM
Experimental: CD3 protein was biotinylated with EZ-link NHS-PEG12-Biotin. Biotinylated CD3 protein was immobilized to SA biosensor. Equilibrated in 1×Kinetics solution. The CD3 immobilized to SA biosensor was combined with the humanized bispecific antibody solution to be detected. The concentration gradient of humanized bispecific antibody was 200 nM, 400 nM, 800 nM, and 1600 nM. The biosensor was dissociated in 1×Kinetics solution. Fortebio Data Analysis 8.0 software was used for data analysis and affinity constant values were calculated.

Binder | Kd [nM] | koff [s⁻¹] | kon [M⁻¹ s⁻¹]
B7 | 9.67 | 0.00225 | 233000
B8 | 10.1 | 0.00367 | 362000
B3 | 1.73 | 0.000571 | 331000
B5 | 0.568 | 0.000107 | 188000
B6 | 12.2 |  | 

Target: T1, CD3 protein
Experiment: BLI (Octet QKe), CD3 amine-coupled on AR2G sensor, antibody at 181.8 nM
Experimental: The affinity of chimeric antibodies to antigen protein CD3 was determined by Fortebio Intermolecular Interaction Octet QKe instrument. First, the amino-coupled biosensor AR2G was activated with EDC/s-NHS, and the activated biosensor AR2G was solidified in CD3 protein solution diluted with 10 mM sodium acetate (pH 5.0) solution. The biosensor solidified with CD3 was quenched in 1M ethanolamine (pH8.5) solution. Then equilibrated in 1× kinetic solution. After equilibration, it was bound to bispecific antibody solution. They were dissociated in 1×kinetic solution. Fortebio Data Analysis 8.0 software was used to analyze the data and calculate the affinity constant value (KD).

Binder | Kd [nM] | koff [s⁻¹] | kon [M⁻¹ s⁻¹]
B2 | 8.87 | 0.00159 | 179000

Reference: US20250179208A1 (ZONHON BIOPHARMA INSTITUTE, published 2025)
